Results: article PMC10994814, “Enzymatic activity of cGAS in the presence of three types of DNAs: limited cGAS stimulation by single-stranded HIV-1 SL2 DNA”

Target: human cGAS (Homo sapiens, UniProt Q8N884 1-522)
Assay: EMSA; 1 uM DNA, 3 uM cGAS; EMSA: 1 uM DNA, 0-5 uM cGAS, 20 mM Tris-HCl pH 8.0 (4 C), 200 mM NaCl, on ice 30 min; 8% native PAGE in 25 mM Tris-HCl pH 8.5, 190 mM glycine; ethidium bromide
Conditions: protein: recombinant; tags: none (N-terminal His6-lipoyl domain removed with TEV protease); 20 bp duplex, unpaired G3 on all four ends (fork at both ends)

Chain of human cGAS (Q8N884 whole entry): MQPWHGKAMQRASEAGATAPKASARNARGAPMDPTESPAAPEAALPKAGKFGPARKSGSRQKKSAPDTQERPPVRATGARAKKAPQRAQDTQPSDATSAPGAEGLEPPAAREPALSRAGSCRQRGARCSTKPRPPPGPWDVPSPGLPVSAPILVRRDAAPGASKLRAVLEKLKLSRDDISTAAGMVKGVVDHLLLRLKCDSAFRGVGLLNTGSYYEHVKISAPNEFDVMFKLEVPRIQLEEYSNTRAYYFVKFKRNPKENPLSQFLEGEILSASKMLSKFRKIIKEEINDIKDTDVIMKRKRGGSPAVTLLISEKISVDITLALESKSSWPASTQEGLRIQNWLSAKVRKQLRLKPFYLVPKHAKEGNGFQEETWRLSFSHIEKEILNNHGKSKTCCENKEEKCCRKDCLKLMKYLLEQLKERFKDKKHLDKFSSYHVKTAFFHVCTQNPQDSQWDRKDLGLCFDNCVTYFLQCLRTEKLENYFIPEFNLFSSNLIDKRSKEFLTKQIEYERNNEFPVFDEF

B1: G3 Y-form DNA (dsDNA)
DNA 1: GGGGAACTCCAGCAGGACCATTGGGG
DNA 2: GGGCAATGGTCCTGCTGGAGTTCGGG
**Q.** For B1, which binding signal is on record?
**A.** ~0 % unbound DNA at cGAS/DNA ratio 3
